Laboratory results from publication PMC10071783 (Journal of Nuclear Medicine, 2023).
Like-named read-outs stand apart in the source and are kept apart here.

Experiments:
[1] = Dose-finding study in mice bearing H69 tumor xenografts; format: in vivo; settings: D-lysine pretreatment
Description: The promising biodistribution profile of ^225Ac-MACROPATATE led us to investigate its therapeutic efficacy. […] All mice in the 148-kBq treatment group (10/10) and 1 of 3 mice in the 92.3-kBq group were euthanized within 10 d of treatment because of substantial weight loss (>20%).

[2] = Biodistribution in mice bearing subcutaneous H69 tumor xenografts; format: in vivo; settings: female, NCI Athymic NCr-nu/nu, mouse, 37 kBq, total radioactivity; for tissue uptake at 2 h: 2 h after injection; for tissue uptake at 2 h / tissue uptake at 24 h: H69 xenograft mice, n = 3, read-out: tumor uptake, percentage injected activity per gram of tissue; for tissue uptake at 4 h: 4 h after injection, read-out: kidney percentage injected activity per gram of tissue; for tissue uptake at 24 h: 24 h after injection
Description: All procedures and animal studies followed a protocol approved by the National Institutes of Health Institutional Animal Care and Use Committee (protocol ROB104). Female athymic homozygous nude mice (NCI Athymic NCr-nu/nu strain 553; Charles River Laboratories), 8–10 wk old, were subcutaneously engrafted with 8 × 10^6 H69 cells in 200 μL of ice-cold phosphate-buffered saline. Treatment of tumors with radiotracers for biodistribution or therapy studies was performed once palpable tumors developed, approximately 1 mo after inoculation. […] Full experimental details for the biodistribution experiments are reported in the supplemental information.
(C) Corresponding tumor-to-tissue ratios for selected organs with lysine pretreatment. Full 12-organ biodistribution data are reported in Supplemental Figures 8–11. Error bars represent SD. ***P < 0.005. […]. %IA/g = percentage injected activity per gram of tissue.

[3] = test system: H69 lung NET xenografts; test: Head-to-head therapy study in mice engrafted with H69 cells; format: in vivo; settings: 46.3 kBq
Description: Animals engrafted with H69 cells were treated with either of the 2 radioconjugates or saline (n = 8–10, each). Local control and survival were the primary outcomes. All groups were tracked for humane endpoints including, but not limited to, tumors larger than 2,000 mm^3 and weight loss greater than 20%.
FIGURE 5. […] (A) Tumor volume measurements over time. Solid lines represent average volume, and dashed lines represent 95% CI. Plots for each dataset are discontinued after first mouse death due to excessive tumor volume. Full tumor volume measurements for study duration for each mouse are reported in Supplemental Figures 15–17. (B) Maximal response to treatment (tumor volume growth percentage) of individual mice. Nonresponding mice are represented as full tumor growth (2,000% increase). (C) Mouse survival over time. Endpoint was defined as tumor volume > 2,000 mm^3 or weight loss over 20% of starting weight. (D) Average mouse body weights over time for each treatment group. Error bars represent SD. ***P < 0.005. *P < 0.05.

[4] = Serum stability in human serum at 37°C by ITLC; format: in vitro ADME; settings: for remaining at 240 h, 370 kBq/mL: human serum (EMD Millipore), pH 7.4, 370 kBq in 1 mL, up to 10 d, read-out ITLC, read-out: intact conjugate remaining in human serum; for stability in human serum: ITLC
Description: Radiochelate was diluted to 370 kBq in 1 mL of human serum and placed on an Eppendorf ThermoMixer set to 37°C. At fixed intervals, aliquots were removed from the reactions and analyzed by ITLC as described in the supplemental information.

[5] = parameters: method as in PMID 33772332; settings: 148 kBq; cited from earlier work
[6] = parameters: method as in PMID 33772332; settings: cited from earlier work
[7] = 8 d; cited from earlier work
Description: DOTA and its derivatives are used to chelate ^225Ac and many of the previously mentioned radionuclides. However, to chelate ^225Ac with DOTA to yield high-specific-activity radioconjugates, temperatures above 70°C are typically required. Even if these temperatures are used, the resulting complex’s thermodynamic stability ([19]) and labeling kinetics are suboptimal ([20]).

| SMILES | mice euthanized within 10 d of treatment because of substantial weight loss (>20%) ([1]; 92.3-kBq group) | mice euthanized within 10 d of treatment because of substantial weight loss (>20%) ([1]; 148-kBq treatment group) | tissue uptake at 2 h ([2]; in vivo) [%ID/g] | tissue uptake at 4 h ([2]; in vivo, after D-lysine administration (35 mg/mouse)) [%ID/g] | tissue uptake at 4 h ([2]; in vivo, without D-lysine) [%ID/g] | tissue uptake at 24 h ([2]; in vivo) [%ID/g] | duration of initial reduction in tumor volume after treatment [3] | mice whose tumors subsequently relapsed [3] | median survival ([3]; H69 xenograft mice, n = 8-10, vehicle 26 d, log rank P = 0.0006) [days] | remaining at 240 h, 370 kBq/mL [4] [%] | stability in human serum [4] | tissue uptake at 4 h ([2]; kidney, after D-lysine administration (35 mg/mouse)) [%ID/g] | tissue uptake at 4 h ([2]; kidney, without D-lysine) [%ID/g] | tissue uptake at 2 h ([2]; tumor) [%ID/g] | tissue uptake at 24 h ([2]; tumor) [%ID/g] | tolerability in mice [5] | intact 225Ac-DOTATATE after 10 d [6] [%] | stability in C57BL6 mice compared with 225Ac-DOTA [7] | stability in human serum compared with 225Ac-DOTA [7] |
| --- | --- | --- | --- | --- | --- | --- | --- | --- | --- | --- | --- | --- | --- | --- | --- | --- | --- | --- | --- |
| C[C@@H](O)[C@H](NC(=O)[C@@H]1CSSC[C@H](NC(=O)[C@@H](Cc2ccccc2)NC(=S)Nc2cc(CN3CCOCCOCCN(Cc4cccc(C(=O)O)n4)CCOCCOCC3)nc(C(=O)O)c2)C(=O)N[C@@H](Cc2ccc(O)cc2)C(=O)N[C@H](Cc2c[nH]c3ccccc23)C(=O)N[C@@H](CCCCN)C(=O)N[C@@H]([C@@H](C)O)C(=O)N1)C(=O)O [^225Ac-MACROPATATE, metal not drawn] | 1 of 3 | 10/10 | 9 | 5.2 | 11.5 | 4 | approximately 3 wk | 7 of 8 | 55 | 98 | stable to 10 d |  |  |  |  |  |  |  |  |
| C[C@@H](O)[C@H](NC(=O)[C@@H]1CSSC[C@H](NC(=O)[C@@H](Cc2ccccc2)NC(=O)CN2CCN(CC(=O)O)CCN(CC(=O)O)CCN(CC(=O)O)CC2)C(=O)N[C@@H](Cc2ccc(O)cc2)C(=O)N[C@H](Cc2c[nH]c3ccccc23)C(=O)N[C@@H](CCCCN)C(=O)N[C@@H]([C@@H](C)O)C(=O)N1)C(=O)O [^225Ac-DOTATATE, metal not drawn, reference compound] |  |  |  |  |  |  |  |  |  | 95 | stable to 10 d | 3.1 | 6 | 5 | 2 | well tolerated | 90 |  |  |
| O=C([O-])c1cccc(CN2CCOCCOCCN(Cc3cccc(C(=O)[O-])n3)CCOCCOCC2)n1.[225Ac+3] [^225Ac-MACROPA] |  |  |  |  |  |  |  |  |  |  |  |  |  |  |  |  |  | comparable stability | comparable stability |
